# Experimental data as given in paper PMC4192013.
# How the values were obtained:
# [1] = molecular target: Human IgG1 Fc wt (residues 216-447) with G2F N-glycan (human); assay: pull-down
# [2] = molecular target: GFP-FcγRIIIa, extracellular region of human FcγRIIIa (residues 19-193, V158 allotype) (human) (UniProt P08637); assay: SPR
# [3] = molecular target: GFP-FcγRIIIa, extracellular region of human FcγRIIIa (residues 19-193, V158 allotype) (human) (UniProt P08637); assay: ITC
Substance,Kd [1] [nM],Kd [2] [nM],Kd [3] [nM]
"GFP-FcγRIIIa, extracellular region of human FcγRIIIa (residues 19-193, V158 allotype) (from UniProt P08637 19-193) (receptor)",500,,
Human IgG1 Fc F241I with G2F N-glycan (domain or fragment),,2100,
Human IgG1 Fc F241I/F243I with G2F N-glycan (domain or fragment),,10000,
Human IgG1 Fc F241I/F243I with a single GlcNAc residue (domain or fragment),,6300,
Human IgG1 Fc F241S with G2F N-glycan (domain or fragment),,1500,
Human IgG1 Fc F241S/F243S with G2F N-glycan (domain or fragment),,29000,
Human IgG1 Fc F241S/F243S with a single GlcNAc residue (domain or fragment),,3500,
Human IgG1 Fc F243S with G2F N-glycan (domain or fragment),,1900,
Human IgG1 Fc K246F with G2F N-glycan (domain or fragment),,340,
Human IgG1 Fc wt (residues 216-447) with G2F N-glycan (domain or fragment),,550,1200
Human IgG1 Fc wt with a single GlcNAc residue (GlcNAc-Fc) (domain or fragment),,2400,
